From US20200002421A1, “ANTI-B7-H3 ANTIBODIES AND ANTIBODY DRUG CONJUGATES” (AbbVie Inc., priority 2016, published 2020) come the findings set out here.

Numbering of substitutions follows the chain as printed.

B1: Ab5: mouse hybridoma anti-B7-H3 monoclonal antibody, mouse IgG1/k (antibody, V domains shown)
VH: QVQLQQPGDELVKPGASVKLSCKTSGYTFTTDWMHWVKQRPGQGLEWIGMIHPNSGTTNYNEKFKSKAALTVDKSSSTACMQLSSLTSEDSAVYYCARSYWKWYFDVWGTGTTVTVSS
VL: QIVLTQSPAIMSASLGEEITLTCSASSSVSYMHWYQQKSGTSPKLLIYSTSNLASGVPSRFSGSGSGTFYSLTISSVEAEDSADYYCHQWTSYMYTFGGGTKLEIK
B2: Ab4: mouse hybridoma anti-B7-H3 monoclonal antibody, mouse IgG2b/k (antibody, V domains shown)
VH: QVQLQQPGAELVKPGASVKLSCKASGYSFTSYWMHWVKQRPGQGLEWIGMIHPNSGSNNYNEKFKSKATLTVDKSSNTAYMQLSSLTSEDSAVYYCARRLGLHFDYWGQGTTLTVSS
VL: DIVMTQSQKFMSTPVGDRVSITCKASQNVGTAVAWYQQKPGQSPKLLIYSASNRYTGVPDRFTGSGSGTDFTLTISNMQSEDLADYFCQQYSSYPYTFGGGTKLEIK
B3: Ab3: mouse hybridoma anti-B7-H3 monoclonal antibody, mouse IgG1/k (antibody, V domains shown)
VH: QVQLQQPGAELVKPGASVKLSCKASGYTFSSYWMHWVKQRPGQGLEWIGLIHPDSGSTNYNEMFKNKATLTVDRSSSTAYVQLSSLTSEDSAVYFCAGGGRLYFDYWGQGTTLTVSS
VL: DVVMTQTPLSLPVSLGDQASISCRSSQSLVHSNGDTYLRWYLQKPGQSPKLLIYKVSNRFSGVPDRFSGSGSGTDFTLKITRVEAEDLGVYFCSQSTHVPYTFGGGTKLEIK
B4: Ab13: mouse hybridoma anti-B7-H3 monoclonal antibody, mouse IgG1/k (antibody, V domains shown)
VH: DVQLQESGPDLVKPSQSLSLTCTVTGYSITSGYSWHWIRQFPGNKLEWMGYIHSSGSTNYNPSLKSRISINRDTSKNQFFLQLNSVTTEDTATYYCAGYDDYFEYWGQGTTLTVSS
VL: DIVMTQSQKFMSTSVGDRVSVTCKASQNVGFNVAWYQQKPGQSPKALIYSASYRYSGVPDRFTGSGSGTDFTLTISNVQSEDLAEYFCQQYNSYPFTFGSGTKLEIK
B5: Ab18: mouse hybridoma anti-B7-H3 monoclonal antibody, mouse IgG1/k (antibody, V domains shown)
VH: QVQLQQSAAELARPGASVKMSCKASGYSFTSYTIHWVKQRPGQGLEWIGYINPNSRNTDYNQKFKDETTLTADRSSSTAYMQLISLTSEDSAVYYCARYSGSTPYWYFDVWGAGTTVTVSS
VL: QIVLTQSPAILSASPGEKVTMTCRASSSVSYMNWYQQKPGSSPKPWIYATSNLASGVPARFSVSVSGTSHSLTISRVEAEDAATYYCQQWSSNPLTFGAGTKLELK
B6: Ab17: mouse hybridoma anti-B7-H3 monoclonal antibody, mouse IgG2b/k (antibody, V domains shown)
VH: EVKLVESGGGLVQPGGSLKLSCAASGFTFSSYIMSWVRQTPEKRLEWVASIVSSNITYYPDSMKGRFTISRDNARNILYLQMSSLKSEDTAMYYCARSGTRAWFAYWGQGTLVTVSA
VL: DIVLTQSPASLAVSLGQRATISCRASKSVSTSAYSYMHWYQQKPGQPPKLLIYLASNLESGVPARFSGSGSGTDFTLNIHPVEEEDAATYYCQHSRELPYTFGGGTKLEIK
B7: Ab2: mouse hybridoma anti-B7-H3 monoclonal antibody, mouse IgG1/k (antibody, V domains shown)
VH: QVQLQQPGAELVKPGASVKLSCKASGYTFTSYWMHWVKQRPGQGLEWIGMIHPDSGTTNYNEKFRSKATLTVDKSSSTAYMQLSSLTSEDSAVYYCAVYYGSTYWYFDVWGTGTTVTVSS
VL: B3 VL with S20Y, S32I, D35N, R39H, L42R, T81S, V99F, Y101F, G105S
B8: Ab10: mouse hybridoma anti-B7-H3 monoclonal antibody, mouse IgG2b/k (antibody, V domains shown)
VH: DVQLQESGPGLVKPSQSLSLTCTVTGYSITSDYAWNWIRQFPGNRLEWMGHINYSGITNYNPSLKSRISITRDTSKNQFFLQLYSVTTEDTATYFCARRSLFYYYGSSLYAMDYWGQGTSVTVSS
VL: B3 VL with T7S, L9F, D35N, R39H, T81S, Y101W
B9: Ab16: mouse hybridoma anti-B7-H3 monoclonal antibody, mouse IgG1/k (antibody, V domains shown)
VH: EVKLLESGGGLVQPGGSLKLSCAASGFDFSRYWMSWVRQAPGKGLEWIGEINPDSSTINYTPSLKDKFIISRDNAKNTLYLQMSKVRSEDTALYYCARPGFGNYIYAMDYWGQGTSVTVSS
VL: DIQMTQTTSSLSASLGDRVTINCRASQDISNFLNWYQQKPDGTVKLLIYYTSRLYLGVPSRFSGSGSGTDYSLTISNLEQEDIATYFCQQGNTLPPTFGGGTKLEIK
B10: Ab6: mouse hybridoma anti-B7-H3 monoclonal antibody, mouse IgG1/k (antibody, V domains shown)
VH: QVQLQQSGAELMKPGASVKISCKATGYTFSRYWIEWVKQRPGHGLEWIGEILPGSGSTNYNEKFKGKATFTADTSSNTAYMQVSSLTSEDSAVHYCARRGYGYVPYALDYWGQGTSVTVSS
VL: B9 VL with D1E, N22S, F32S, K45N, L56S, P96Y
B11: Ab14: mouse hybridoma anti-B7-H3 monoclonal antibody, mouse IgG1/k (antibody, V domains shown)
VH: EVKLVESGGGLVKPGGSLKLSCAASGFTFSSYGMSWVRQTPEKRLEWVATISGGGTNTYYPDSVEGRFTISRDNAKNFLYLQMSSLRSEDTALYYCARHYGSQTMDYWGQGTSVTVSS
VL: DIQMTQSPASLSASVGETVTITCRTSGNIHNYLTWYQQKQGKSPQLLVYNAKTLADGVPSRFSGSGSGTQFSLKINSLQPEDFGSYYCQHFWSIMWTFGGGTKLEIK

The target of one assay is T1, human B7-H3 (Homo sapiens, UniProt Q5ZPR3).
T1 construct: His tag (6xHis) (C)
T1 sequence (Q5ZPR3 with tags, fused parts or gaps): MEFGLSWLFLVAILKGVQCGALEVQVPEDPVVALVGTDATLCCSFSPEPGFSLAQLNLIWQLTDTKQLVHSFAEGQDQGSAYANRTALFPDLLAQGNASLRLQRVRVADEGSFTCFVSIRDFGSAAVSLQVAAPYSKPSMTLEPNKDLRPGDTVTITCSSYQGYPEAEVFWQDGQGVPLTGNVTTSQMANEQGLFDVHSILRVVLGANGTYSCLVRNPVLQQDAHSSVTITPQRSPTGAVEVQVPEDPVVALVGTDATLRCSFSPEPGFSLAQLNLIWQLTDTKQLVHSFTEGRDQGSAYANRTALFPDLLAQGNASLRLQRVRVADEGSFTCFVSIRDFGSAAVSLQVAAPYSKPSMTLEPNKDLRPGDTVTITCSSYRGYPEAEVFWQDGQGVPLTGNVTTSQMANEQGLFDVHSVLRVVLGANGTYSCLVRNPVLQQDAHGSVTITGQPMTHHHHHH
Briefly: Epitope grouping by pair-wise Biacore SPR binding. As to conditions: simultaneous binding assay, FIG. 1. From the text:
Pair-wise binding assays performed on Biacore T200 SPR instruments were used to determine the relative epitope grouping for the murine anti-B7-H3 mAbs as described in the methods below. […] Epitope groups are represented as individual ovals, some of which overlap with each other. Antibodies in different epitope groups can bind to B7-H3 simultaneously and likely bind to different epitopes while antibodies within a given epitope group cannot bind to B7-H3 simultaneously and likely bind to overlapping epitopes. The grouping information was derived from a simultaneous binding assay as described in materials and methods. Ab3, Ab4, Ab5, Abl 1, Ab12, and Ab8 groupings were ambiguous
Pair-wise binding assays performed on Biacore T200 SPR instruments were used to determine the relative epitope grouping for a series of anti-B7-H3 mAbs. The assay format was Fc-based capture via immobilized anti-mouse (Fc) (Pierce 31170) or immobilized anti-human (Fc) (Pierce 31125). A standard amine coupling protocol was employed to immobilize the capture reagents via primary amines to the carboxy-methyl (CM) dextran surface of CM5 sensorchips (Biacore); capture antibodies were coupled to a level of approximately 2000 RU. Epitope grouping measurements were done at 12° C. (low temperature allows for grouping information on fast off-rate mAbs), the assay buffer was HBS-EP+(Biacore): 10 mM Hepes, pH7.4, 150 mM NaCl, 3 mM EDTA, 0.05% polysorbate 20. Each assay cycle consisted of the following steps in a four flowcell system: 1) separate test mAbs were captured in flowcells 2, 3 & 4 (flowcell 1 was reference, no test mAb); 2) all 4 flowcells were then blocked by injection with isotype control mAb or isotype mAb cocktail at 50 μg/mL; 3) all 4 flowcells were then injected with antigen or buffer only (buffer only is for double referencing, done for each mAb pair individually); 4) all 4 flowcells were then injected with 2nd test mAb at 10 μg/mL; 5) all 4 flowcells were then regenerated with glycine, pH1.5. The assay was done for each test mAb pair in reciprocal orientations. Simultaneous binding was evaluated examining the ratio of the 2nd test mAb response to the Ag response (RUmAb2/RUAg); if this ratio was equal to or greater than 0.2 the interaction was scored as a simultaneous binder. From this pair-wise binding assay data a “venn” style diagram was constructed manually to depict relative epitope groupings.
For orientation: Surface plasmon resonance follows binding to a sensor surface in real time, without labels.
For the molecule B1, the epitope grouping result is recorded as “ambiguous”. In the case of B2, the epitope grouping entry is “ambiguous”. B3: the epitope grouping result is reported as “ambiguous”.

Another assay has as its target T2, huB7-H3 (Homo sapiens, UniProt Q5ZPR3).
T2 construct: His tag (6xHis) (C)
T2 sequence (Q5ZPR3 with tags, fused parts or gaps): T1 sequence (Q5ZPR3 with tags, fused parts or gaps)
Briefly: Biacore T200 SPR binding kinetics, mAb capture. As to conditions: Table 3. As to the method:
The binding affinity of the purified anti-B7-H3 monoclonal antibodies was determined by surface […]. […] The binding kinetics were derived from SPR measurements using a Biacore T200 instrument and a mAb capture approach (as described in the materials and methods below).
Biacore T200 SPR instruments were used to measure the binding kinetics of human B7-H3 (4Ig-B7-H3 variant) (analyte) binding to various mAbs (ligands). The assay format was Fc-based capture via immobilized anti-mouse (Fc) (Pierce 31170) or immobilized anti-human (Fc) (Pierce 31125). A standard amine coupling protocol was employed to immobilize the capture reagents via primary amines to the carboxy-methyl (CM) dextran surface of CM5 sensorchips (Biacore); capture antibodies were coupled to a level of approximately 5000 RU. For binding kinetic measurements the assay buffer was HBS-EP+(Biacore): 10 mM Hepes, pH7.4, 150 mM NaCl, 3 mM EDTA, 0.05% polysorbate 20. During the assay, all measurements were referenced against the capture surface alone. Each assay cycle consisted of the following steps: 1) Capture of ligand to approximately 50 RU; 2) Analyte injection over both reference and test surface, 240 μL at 80 μL/min, after which the dissociation was monitored for 900 seconds at 80 μL/min; 3) Regeneration of capture surface with low pH glycine. For kinetic determinations analyte injections were 3-point, 9-fold dilution series of 900 nM, 100 nM and 11.11 nM, buffer only injections were included for secondary referencing. Data were processed and fit to a 1:1 binding model using Biacore T200 Evaluation Software to determine the binding kinetic rate constants, ka (on-rate) and kd (off-rate), and the equilibrium dissociation constant (affinity, KD).
Take B4: the “huB7-H3 ka(1/Ms)” value was 330000 M⁻¹ s⁻¹. The same measure, in the same setting: the same measure for B5: 210000 M⁻¹ s⁻¹; for B6: 540000 M⁻¹ s⁻¹; for B1: 1.3e+06 M⁻¹ s⁻¹. For B2, the “huB7-H3 ka(1/Ms)” value amounted to 690000 M⁻¹ s⁻¹.

In the case of B3, the “huB7-H3 ka(1/Ms)” value worked out at 520000 M⁻¹ s⁻¹. Same read-out and setting: the same measure for B7: 120000 M⁻¹ s⁻¹; for B8: 41000 M⁻¹ s⁻¹; for B9: 140000 M⁻¹ s⁻¹. Still for that read-out and setting: the same measure for B10: 12000 M⁻¹ s⁻¹.

As to B11, the “huB7-H3 ka(1/Ms)” value stood at 110000 M⁻¹ s⁻¹.
